Data from publication doi:10.1101/151191 (bioRxiv, 2017).

How the values were obtained:
[1] = molecular target: the molecule itself; experiment: AUC
[2] = molecular target: the molecule itself; experiment: SEC

B1: α-mDelNT (N-terminal half of mouse α-Delphilin) (domain or fragment, UniProt Q0QWG9-2 1-558, looked up)
chain: MSCLGIFIPKKHRARFDEVVSQGLLGKLCRARRAQGAQRLRRSRSEERPERLLVSTRASAAPRRPDEPPPRKATSLLGGRTGPGGPRRTVRVYKGNKSFGFTLRGHGPVWIESVLPGSPAENASLKSGDRILFLNGLDMRNCSHDKVVSMLQGSGAMPTLVVEEGPVPFASDSDSLDSPTRASALTSLQWVADILPSSIRVQGRTFSQQLDHLLTPPERYGVCRALERFFQHRNIDTLIVDVYPVLDTPAKQVLWQFLYQLLTYEEQELCQEKIACFLGYTAMTEPESSLDLEPESTPEPTPEPQPRSSLRASSMCRRSLRSQGLETSLSCGPGDCPEMPLPLIPGERQAGDGTSLPETPNPKMMSAVYAELESRLNSSFKGKIGTMSKSRASPPVPSLVGTSGPRTLSGVSWPSDRLLPSPCYDPLCSGGLASPSSSESHPYASLDSSRAPSPQPGLGSIHADSPPSPDPIRPPSRRKLFAFSRPVRSRDTDRFLDALSEQLGPRLSIVDDFLTPENDYEEMSFHDDQGSFVTNERSSASECVSSSEEGSSLTYSSI
In the case of B1, the “stoichiometry N” value [1] is reported as 6 subunits and the “stoichiometry N” value [2] is reported as 7 subunits.
